Results from article doi:10.1101/331207 (bioRxiv, 2018).

Target: the molecule itself
Test: cryo-EM structure

B1: human LRRC8A (leucine-rich repeat-containing 8A) wild-type protein (natural protein)
chain: MIPVTELRYFADTQPAYRILKPWWDVFTDYISIVMLMIAVFGGTLQVTQDKMICLPCKWVTKDSCNDSFRGWAAPGPEPTYPNSTILPTPDTGPTGIKYDLDRHQYNYVDAVCYENRLHWFAKYFPYLVLLHTLIFLACSNFWFKFPRTSSKLEHFVSILLKCFDSPWTTRALSETVVEESDPKPAFSKMNGSMDKKSSTVSEDVEATVPMLQRTKSRIEQGIVDRSETGVLDKKEGEQAKALFEKVKKFRTHVEEGDIVYRLYMRQTIIKVIKFILIICYTVYYVHNIKFDVDCTVDIESLTGYRTYRCAHPLATLFKILASFYISLVIFYGLICMYTLWWMLRRSLKKYSFESIREESSYSDIPDVKNDFAFMLHLIDQYDPLYSKRFAVFLSEVSENKLRQLNLNNEWTLDKLRQRLTKNAQDKLELHLFMLSGIPDTVFDLVELEVLKLELIPDVTIPPSIAQLTGLKELWLYHTAAKIEAPALAFLRENLRALHIKFTDIKEIPLWIYSLKTLEELHLTGNLSAENNRYIVIDGLRELKRLKVLRLKSNLSKLPQVVTDVGVHLQKLSINNEGTKLIVLNSLKKMANLTELELIRCDLERIPHSIFSLHNLQEIDLKDNNLKTIEEIISFQHLHRLTCLKLWYNHIAYIPIQIGNLTNLERLYLNRNKIEKIPTQLFYCRKLRYLDLSHNNLTFLPADIGLLQNLQNLAITANRIETLPPELFQCRKLRALHLGNNVLQSLPSRVGELTNLTQIELRGNRLECLPVELGECPLLKRSGLVVEEDLFNTLPPEVKERLWRADKEQA
stoichiometry N: 6
